In the experiment the target is VemH (Streptomyces venezuelae ATCC 10712).

From article PMC6941969 come the findings set out here.

Consider VemG (enzyme), for which the apparent Kd from enzyme activity: initial velocities of venemycin production (HPLC) at constant 0.2 µM VemH and 0.1–8.0 µM VemG, fit with a quadratic binding equation came out at 5.1 µM.
